Test [1] deals with T1, human complement factor C1q (human, UniProt P02745 23-245; P02746 28-253; P02747 29-245).
T1 construct: The immunogen was C1q purified from human plasma (Complement Technology A-099); In the CH50 assays the C1q is the one present in human serum; Observed mass about 460 kDa; also called human C1q; hC1q
Nature of the test: OCTET biosensor, C1q immobilized; human C1q. Here is the method: (§1) C1q-antibody interactions were measured using an OCTET™ System according to standard protocols and manufacturer's instructions. Briefly, human and mouse C1q proteins were immobilized separately on a biosensor at three concentrations (3 nM, 1.0 nM, and 0.33 nM).

Test [2] concerns the target T2, mouse C1q (mouse, UniProt P14106 26-253).
T2 construct: In the CH50 assay the C1q is the one present in C57Bl/6 mouse serum; also called mouse C1q protein
In words: OCTET biosensor, C1q immobilized; mouse C1q. Here is the method:
as §1

Test [3] addresses T1, human complement factor C1q. In words: OCTET biosensor, C1q immobilized, full length antibody in solution. The procedure: as §1
For test [4], the target named is T2, mouse C1q. The description is as above. Here is the method: as §1

T2 sequence (chain, as listed by the source, chain 1 of 3): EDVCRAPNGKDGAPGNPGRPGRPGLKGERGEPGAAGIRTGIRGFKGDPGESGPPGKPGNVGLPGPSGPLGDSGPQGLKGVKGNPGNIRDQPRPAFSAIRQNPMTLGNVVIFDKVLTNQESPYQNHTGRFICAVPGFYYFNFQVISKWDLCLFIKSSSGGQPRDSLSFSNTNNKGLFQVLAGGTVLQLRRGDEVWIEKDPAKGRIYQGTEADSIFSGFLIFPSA
T2 sequence (P14106 26-253, chain 2 of 3): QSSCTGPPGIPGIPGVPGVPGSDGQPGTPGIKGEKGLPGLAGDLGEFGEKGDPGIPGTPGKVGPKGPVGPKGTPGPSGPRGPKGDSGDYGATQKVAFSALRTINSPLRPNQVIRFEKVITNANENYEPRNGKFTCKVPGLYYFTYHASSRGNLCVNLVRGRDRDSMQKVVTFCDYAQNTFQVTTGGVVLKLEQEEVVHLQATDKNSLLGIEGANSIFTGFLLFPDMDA
T2 sequence (chain, as listed by the source, chain 3 of 3): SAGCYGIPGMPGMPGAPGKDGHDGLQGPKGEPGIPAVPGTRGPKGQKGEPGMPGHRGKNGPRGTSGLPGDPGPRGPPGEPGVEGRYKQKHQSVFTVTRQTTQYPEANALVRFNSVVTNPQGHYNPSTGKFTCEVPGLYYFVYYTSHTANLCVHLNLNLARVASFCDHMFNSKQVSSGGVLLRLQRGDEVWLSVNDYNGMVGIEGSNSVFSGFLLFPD
T1 sequence (P02745 23-245 limits assumed, chain 1 of 3): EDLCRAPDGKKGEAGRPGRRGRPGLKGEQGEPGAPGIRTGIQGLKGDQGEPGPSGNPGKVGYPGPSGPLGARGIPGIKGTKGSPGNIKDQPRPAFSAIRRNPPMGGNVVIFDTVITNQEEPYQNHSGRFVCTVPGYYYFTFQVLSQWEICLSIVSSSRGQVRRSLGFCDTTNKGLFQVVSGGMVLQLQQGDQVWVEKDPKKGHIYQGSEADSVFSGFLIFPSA
T1 sequence (P02746 28-253 limits assumed, chain 2 of 3): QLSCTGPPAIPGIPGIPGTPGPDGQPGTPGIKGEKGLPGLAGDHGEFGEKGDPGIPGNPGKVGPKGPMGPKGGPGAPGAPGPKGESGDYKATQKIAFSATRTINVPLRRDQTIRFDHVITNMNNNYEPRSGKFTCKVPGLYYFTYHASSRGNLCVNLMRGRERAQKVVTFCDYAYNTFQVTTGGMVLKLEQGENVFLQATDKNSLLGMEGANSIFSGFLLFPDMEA
T1 sequence (P02747 29-245 limits assumed, chain 3 of 3): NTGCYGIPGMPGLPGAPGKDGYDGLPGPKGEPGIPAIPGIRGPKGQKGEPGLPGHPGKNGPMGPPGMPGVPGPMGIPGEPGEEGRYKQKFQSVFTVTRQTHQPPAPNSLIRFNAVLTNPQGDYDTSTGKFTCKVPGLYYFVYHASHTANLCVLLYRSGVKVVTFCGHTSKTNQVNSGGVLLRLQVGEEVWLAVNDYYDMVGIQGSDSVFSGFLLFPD

B1: murine anti-human C1q monoclonal antibody M1 (antibody, mouse IgG1, V domains shown)
VH: QVQLQQPGAELVKPGASVKLSCKSSGYHFTSYWMHWVKQRPGQGLEWIGVIHPNSGSINYNEKFESKATLTVDKSSSTAYMQLSSLTSEDSAVYYCAGERDSTEVLPMDYWGQGTSVTVSS
VL: DVQITQSPSYLAASPGETITINCRASKSINKYLAWYQEKPGKTNKLLIYSGSTLQSGIPSRFSGSGSGTDFTLTISSLEPEDFAMYYCQQHNEYPLTFGAGTKLELK
notes: Tested as full length hybridoma antibody; Isotype mouse IgG1, kappa; also called ANN-005; anti-C1q antibody M1
The Kd is a measure of binding affinity in units of concentration. Lower therefore signals higher affinity. With B1, the Kd in test [1] is < 0.1 nM; in test [2], < 0.1 nM; in test [3], 0.0128 nM; in test [4] it was 0.0323 nM.

(Values after patent publication US20170334976A1 (ANNEXON, published 2017).)
